Measured values as given in patent US20140056903A1 (Regeneron, published 2014).

What was measured:
[1] = target: T1, human GFRα3 expressed with a C-terminal myc-myc-hexahistidine tag (human, UniProt O60609 32-374, biotinylated (sites not given) in ELISA format 2 and in the Octet cross-competition; not in SPR); experiment: SPR, Ab captured, 25C
T1 construct: also called hGFRα3-mmh; hGFRα3-mmH
Method in brief: (§1)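 Antibodies captured on anti-mouse or anti-human IgG CM5 surfaces, in HBS-EP or PBS-P20 at pH 7.4. mmh-tagged GFRα3 injected at 200–7.4 nM and Fc-tagged at 100–3.7 nM, with association up to 4 min and dissociation up to 20 min. Data fitted 1:1; KD=kd/ka, t1/2=ln2/(60*kd).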

[2] = target: T2, human GFRα3 expressed with a C-terminal mFc tag (human); experiment: SPR, Ab captured, 25C
T2 construct: also called hGFRα3-mFc
T2 chain: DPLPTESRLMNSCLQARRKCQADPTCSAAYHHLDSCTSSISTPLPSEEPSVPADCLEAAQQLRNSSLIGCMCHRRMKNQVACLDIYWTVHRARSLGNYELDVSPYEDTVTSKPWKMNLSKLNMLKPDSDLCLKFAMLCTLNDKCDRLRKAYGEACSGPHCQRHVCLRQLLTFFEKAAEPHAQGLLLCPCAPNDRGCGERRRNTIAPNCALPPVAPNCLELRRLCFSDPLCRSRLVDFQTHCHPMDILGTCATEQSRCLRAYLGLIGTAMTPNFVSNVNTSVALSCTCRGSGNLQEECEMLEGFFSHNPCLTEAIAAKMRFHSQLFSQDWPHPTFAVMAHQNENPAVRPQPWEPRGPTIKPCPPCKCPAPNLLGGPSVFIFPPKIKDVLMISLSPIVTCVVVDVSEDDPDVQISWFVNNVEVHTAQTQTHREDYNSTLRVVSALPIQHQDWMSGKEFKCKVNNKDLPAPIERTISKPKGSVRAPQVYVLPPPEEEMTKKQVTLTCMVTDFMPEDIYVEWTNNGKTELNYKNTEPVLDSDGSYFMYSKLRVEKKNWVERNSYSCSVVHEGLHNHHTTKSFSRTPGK
Method in brief: as §1

| Binder | Kd [1] [pM] | koff [1] [s⁻¹] | kon [1] [M⁻¹ s⁻¹] | t1/2 [1] [h] | Kd [2] [pM] | koff [2] [s⁻¹] | kon [2] [M⁻¹ s⁻¹] | t1/2 [2] [h] |
| --- | --- | --- | --- | --- | --- | --- | --- | --- |
| H4H2344S (antibody, human IgG4, V domains shown, human IgG4 Fc (H4H)) VH: EVQLVESGGGVVQPGRSLRLSCAASGFSFSDYVMHWVRQAPGKGLEWVASIWFDGSNEFYADSVKGRFTISRDNSKNTLFLQMNSLRAEDTAVYYCAKKGVLVATSAFDIWGQGTMVTVSS VL: DIQMTQSPSSLSASVGDRVTITCRASQSINNYLNWYHQKPGKAPKLLIYAASSLQSGVPSRFSGSGSGTDYTLTISSLQPEDFGNYYCQQSYRTSMYTFGQGTKVEIK | 1310 | 0.00024 | 183000 | 0.8 | 2.69 | 1.56e-06 | 579000 | 123 |
| H4H2293P (antibody, human IgG4, V domains shown, human IgG4 Fc (H4H)) VH: QVQLVESGGGVVQPGRSLRLSCAASGFSFSDYVMHWVRQAPGKGLEWVASIWFDGSNELYADSVKGRFTISRDNSKNTLFLQMNSLRAEDTAVYYCAKKGVLVATSAFHIWGQGTMVTVSS VL: AIQMTQSPSSLSASVGDRVTITCRASQNINNYLNWYHQKPGKAPNLLIYAASSLQSGVPSRFSGSGSGTDYTLTISSLQPEDFGNYYCQQSYSTSMYTFGQGTKLEIK | 219 | 0.000127 | 581000 | 1.52 | 1.59 | 1.93e-06 | 1.22e+06 | 99.8 |
| H4H2346S (antibody, human IgG4, V domains shown, human IgG4 Fc (H4H)) VH: QVQLVESGGGVVQPGRSLRLSCAASGFSFSDYVMHWVRQAPGKGLEWVASIWFDGSNEFYADSVKGRFTISRDNSKNTLFLQMNSLRAEDTAVYYCAKKGVLVATSAFDIWGQGTMVTVSS VL: EIVMTQSPSSLSASVGDRVTITCRASQSINNYLNWYHQKPGKAPKLLIYAASSLQSGVPSRFSGSGSGTDYTLTISSLQPEDFGNYYCQQSYRTSMYTFGQGTKVEIK | 430 | 7.99e-05 | 186000 | 2.42 | 22.2 | 1.44e-05 | 647000 | 13.4 |
| H4H2354S (antibody, human IgG4, V domains shown, human IgG4 Fc (H4H); also called H4H2354S-1) VH: QVQLVESGGGVVQPGRSLRLSCAASGFSFSDYVMHWVRQAPGKGLEWVASIWFDGSNEFYADSVKGRFTISRDNSKNTLFLQMNSLRAEDTAVYYCAKKGVLVATSAFDIWGQGTMVTVSS VL: DIQLTQSPSSLSASVGDRVTITCRASQSINNYLNWYHQKPGKAPKLLIYAASSLQSGVPSRFSGSGSGTDYTLTISSLQPEDFGNYYCQQSYRTSMYTFGQGTKVEIK | 548 | 0.00011 | 200000 | 1.75 | 18.9 | 1.09e-05 | 580000 | 17.6 |
| H4H2364S (antibody, human IgG4, V domains shown, human IgG4 Fc (H4H)) VH: EVQLVESGGGLEQPGGSLRLSCAASGFTFSSYVMSWVRQVPGKGLEWVSVISGSGGSTYYADSVKGRFTISRDNSKNTLYLQMNSLRAEDTAVYYCAKPSSYSSSNFHYGMDVWGQGTTVTVSS VL: DIQMTQSPYSVSASVGDRVTITCRASQGISSWLAWYQQKPGRAPKLLIYAASSLQSGVPSRFSGSGSGTDFTLTISSLQPEDFATYYCQKTNSFPFTFGPGTKVEIK | 104 | 3.67e-05 | 353000 | 5.25 | ≤ 1.3 | ≤ 1e-06 | 771000 | 192 |
| H4H2341S (antibody, human IgG4, V domains shown, human IgG4 Fc (H4H)) VH: EVQLVESGAEVKKSGSSVKVSCKASGGTFSRYAISWVRQAPGQGLEWMGGIIPLFGTLNYAQKFQGRVTLTTDESTSTAYMELSSLRSEDTAVYYCAVFYYGSGSYRNWFDPWGQGTLVTVSS VL: not shown | 1680 | 0.000267 | 159000 | 0.717 | ≤ 1.68 | ≤ 1e-06 | 596000 | 192 |
